Values belong to the binder of their own block, whether it stands above or below them.
Columns and labels:
[1] = biological target: T1, human insulin receptor extracellular domain (HIR ECD), lectin affinity purified from transfected CHO cells (human, UniProt P06213 28-956, limits assumed); experiment: ELISA, HIR ECD plated; printed as ED50 (second assay, run with the Gln-192 allozyme)
T1 construct: extracellular domain; Secreted ECD purified on a wheat germ agglutinin column
Method: (§1) The affinity of the HIRMAb-PON1 fusion protein for the HIR extracellular domain (ECD) was determined with an ELISA using the lectin affinity purified HIR ECD. Chinese hamster ovary (CHO) cells permanently transfected with the HIR ECD were grown in serum free media, and the HIR ECD was purified with a wheat germ agglutinin affinity column. The HIR ECD (0.2 ug/well) was plated on high binding 96-well plates, and the binding of the HIRMAb, or the HIRMAb-PON1 fusion protein to the HIR ECD was detected with a biotinylated goat anti-human IgG (H+L) antibody (0.3 μg/well), and the avidin-biotinylated peroxidase detection system.

[2] = biological target: T1, human insulin receptor extracellular …; experiment: ELISA, HIR ECD plated, detection with biotinylated anti-human IgG; printed as ED50 (assay of FIG. 4)
Method: as §1

[3] = biological target: T1, human insulin receptor extracellular …; experiment: ELISA, HIR ECD plated, detection with biotinylated anti-human IgG; printed as ED50 (assay of FIG. 4, Arg-192 allozyme)
Method: as §1

[4] = biological target: T1, human insulin receptor extracellular …; experiment: ELISA, HIR ECD plated; printed as ED50 (second assay, Gln-192 allozyme)
Method: as §1

EC50 [1]: 0.48 nM
EC50 [2]: 0.55 nM
B1: chimeric HIRMAb (chimeric monoclonal antibody to the human insulin receptor) (antibody, human IgG1, kappa)
heavy: not shown
light: DIQMTQSPSSLSASLGERVSLTCRASQDIGGNLYWLQQGPDGTIKRLIYATSSLDSGVPKRFSGSRSGSDYSLTISSLESEDFVDYYCLQYSSSPWTFGGGTKMEIKRTVAAPSVFIFPPSDEQLKSGTASVVCLLNNFYPREAKVQWKVDNALQSGNSQESVTEQDSKDSTYSLSSTLTLSKADYEKHKVYACEVTHQGLSSPVTKSFNRGEC
notes: Chimeric mouse/human IgG1 kappa; also called engineered HIRMAb

EC50 [3]: 1.1 nM
B2: HIRMAb-PON1 fusion protein, Arg-192 allozyme (PON1 fused to the carboxyl terminus of the HIRMAb heavy chain) (antibody)
heavy: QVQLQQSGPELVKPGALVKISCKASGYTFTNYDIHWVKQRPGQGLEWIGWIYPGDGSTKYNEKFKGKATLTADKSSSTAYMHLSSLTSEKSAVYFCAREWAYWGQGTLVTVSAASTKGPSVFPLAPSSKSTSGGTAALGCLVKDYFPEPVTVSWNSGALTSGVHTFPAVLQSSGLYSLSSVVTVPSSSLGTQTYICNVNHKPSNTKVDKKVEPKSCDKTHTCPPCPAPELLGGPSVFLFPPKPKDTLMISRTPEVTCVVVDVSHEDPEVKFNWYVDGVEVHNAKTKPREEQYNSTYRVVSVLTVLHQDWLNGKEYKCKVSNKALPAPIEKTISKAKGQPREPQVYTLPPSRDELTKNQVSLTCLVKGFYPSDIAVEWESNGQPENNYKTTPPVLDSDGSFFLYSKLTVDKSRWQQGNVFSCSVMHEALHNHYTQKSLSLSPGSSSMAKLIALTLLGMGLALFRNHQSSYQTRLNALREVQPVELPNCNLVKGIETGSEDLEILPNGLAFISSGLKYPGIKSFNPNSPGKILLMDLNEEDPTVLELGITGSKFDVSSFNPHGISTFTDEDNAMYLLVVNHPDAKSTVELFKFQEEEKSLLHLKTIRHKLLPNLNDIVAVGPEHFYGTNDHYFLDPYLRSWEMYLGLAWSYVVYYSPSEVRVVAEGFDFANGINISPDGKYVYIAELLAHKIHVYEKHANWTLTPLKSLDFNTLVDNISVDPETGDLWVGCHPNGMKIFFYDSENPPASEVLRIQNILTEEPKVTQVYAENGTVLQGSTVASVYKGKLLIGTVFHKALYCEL
light: DIQMTQSPSSLSASLGERVSLTCRASQDIGGNLYWLQQGPDGTIKRLIYATSSLDSGVPKRFSGSRSGSDYSLTISSLESEDFVDYYCLQYSSSPWTFGGGTKMEIKRTVAAPSVFIFPPSDEQLKSGTASVVCLLNNFYPREAKVQWKVDNALQSGNSQESVTEQDSKDSTYSLSSTLTLSKADYEKHKVYACEVTHQGLSSPVTKSFNRGEC
notes: IgG-enzyme fusion antibody

EC50 [4]: 0.96 nM
B3: HIRMAb-PON1 fusion protein, Gln-192 allozyme (antibody, human IgG1, kappa)
heavy: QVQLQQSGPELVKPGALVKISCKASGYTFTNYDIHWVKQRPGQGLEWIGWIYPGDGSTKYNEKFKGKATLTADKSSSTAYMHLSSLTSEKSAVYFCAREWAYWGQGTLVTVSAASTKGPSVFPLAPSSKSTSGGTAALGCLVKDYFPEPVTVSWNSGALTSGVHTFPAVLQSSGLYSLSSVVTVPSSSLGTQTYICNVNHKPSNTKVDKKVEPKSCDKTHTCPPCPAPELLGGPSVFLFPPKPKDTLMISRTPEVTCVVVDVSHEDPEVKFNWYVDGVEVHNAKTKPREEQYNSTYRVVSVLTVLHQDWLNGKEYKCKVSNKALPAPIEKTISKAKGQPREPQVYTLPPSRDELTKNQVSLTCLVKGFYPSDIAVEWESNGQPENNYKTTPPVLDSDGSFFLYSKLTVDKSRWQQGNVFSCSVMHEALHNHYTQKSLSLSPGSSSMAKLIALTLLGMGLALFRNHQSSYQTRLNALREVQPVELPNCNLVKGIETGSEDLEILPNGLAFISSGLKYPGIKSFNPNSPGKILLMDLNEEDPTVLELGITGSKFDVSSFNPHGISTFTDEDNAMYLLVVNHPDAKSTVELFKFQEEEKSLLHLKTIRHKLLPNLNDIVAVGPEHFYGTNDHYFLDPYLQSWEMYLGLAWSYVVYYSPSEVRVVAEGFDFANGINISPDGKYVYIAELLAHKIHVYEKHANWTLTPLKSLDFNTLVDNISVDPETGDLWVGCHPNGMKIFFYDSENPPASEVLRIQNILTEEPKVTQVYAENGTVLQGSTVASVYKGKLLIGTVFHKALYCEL
light: DIQMTQSPSSLSASLGERVSLTCRASQDIGGNLYWLQQGPDGTIKRLIYATSSLDSGVPKRFSGSRSGSDYSLTISSLESEDFVDYYCLQYSSSPWTFGGGTKMEIKRTVAAPSVFIFPPSDEQLKSGTASVVCLLNNFYPREAKVQWKVDNALQSGNSQESVTEQDSKDSTYSLSSTLTLSKADYEKHKVYACEVTHQGLSSPVTKSFNRGEC
